Reference: patent US20220048999A1 (Genmab, published 2022)

Experiments:
[1] = molecular target: T1, human B7H4, full length, on cells (human, UniProt Q7Z7D3 25-282); assay: flow cytometry, HEK-293F cells transfected with human B7H4 (panel Human B7H4), about 0.0004-30 µg/ml, MFI PE
T1 construct: On transiently transfected HEK cells or on B7H4-expressing human tumor cell lines; also called VTCN1
T1 sequence: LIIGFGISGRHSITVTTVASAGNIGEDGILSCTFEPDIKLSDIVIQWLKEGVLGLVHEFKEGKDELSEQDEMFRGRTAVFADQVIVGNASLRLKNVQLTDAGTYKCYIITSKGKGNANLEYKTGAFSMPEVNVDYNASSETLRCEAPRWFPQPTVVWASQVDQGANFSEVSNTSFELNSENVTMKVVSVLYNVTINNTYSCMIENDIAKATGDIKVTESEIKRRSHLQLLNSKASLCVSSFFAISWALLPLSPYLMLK
Protocol: (§1) Cells (3×10⁴ cells/well) were incubated in polystyrene 96-well round-bottom plates (Greiner bio-one, cat. no. 650180) with serial dilutions of antibodies (ranging from 0.000458 to 30 μg/mL in 4-fold dilution steps) in 100 μL PBS/0.1% BSA/0.02% azide (staining buffer) at 4° C. for 30 min. Experiments were performed in technical duplicate. After washing twice in staining buffer, cells were incubated in 50 μL secondary antibody at 4° C. for 30 min. As a secondary antibody, R-Phycoerythrin (PE)-conjugated goat-anti-human IgG F(ab′)₂ (1:500 in FACS buffer; Jackson ImmunoResearch Laboratories, Inc., West Grove, Pa., cat. no. 109-116-098), was used. Cells were washed twice in staining buffer, re-suspended in 30 μL FACS buffer containing Topro-3 (1:10,000 dilution) and analyzed on an iQue Screener (Intellicyt Corporation, USA). Binding curves were analyzed using non-linear regression (sigmoidal dose-response with variable slope) using Graph Pad Prism V7.02 software (GraphPad Software, San Diego, Calif., USA).

[2] = molecular target: T2, cynomolgus monkey (Macaca fascicularis) B7H4 transcript 1, full length, on HEK-293F cells (cynomolgus monkey, UniProt Q7Z7D3 25-282 (human entry)); assay: flow cytometry, HEK-293F cells transfected with cynomolgus monkey B7H4 (panel Cynomolgus monkey B7H4), about 0.0004-30 µg/ml, MFI PE
T2 construct: also called cynomolgus B7H4
T2 chain: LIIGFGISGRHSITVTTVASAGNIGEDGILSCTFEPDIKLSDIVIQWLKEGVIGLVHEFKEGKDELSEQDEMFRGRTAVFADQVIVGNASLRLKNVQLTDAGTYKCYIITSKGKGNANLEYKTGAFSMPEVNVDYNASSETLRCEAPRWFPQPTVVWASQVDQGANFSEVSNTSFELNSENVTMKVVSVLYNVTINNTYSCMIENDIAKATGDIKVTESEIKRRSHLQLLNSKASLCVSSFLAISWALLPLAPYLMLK
Protocol: as §1

[3] = molecular target: T3, mouse (Mus musculus) B7H4, full length, on HEK-293F cells (mouse, UniProt Q7TSP5 25-257); assay: flow cytometry, HEK-293F cells transiently transfected with mouse B7H4 (panel Mouse B7H4), 0.000458-30 µg/ml, PE-anti-human IgG, MFI PE
T3 sequence: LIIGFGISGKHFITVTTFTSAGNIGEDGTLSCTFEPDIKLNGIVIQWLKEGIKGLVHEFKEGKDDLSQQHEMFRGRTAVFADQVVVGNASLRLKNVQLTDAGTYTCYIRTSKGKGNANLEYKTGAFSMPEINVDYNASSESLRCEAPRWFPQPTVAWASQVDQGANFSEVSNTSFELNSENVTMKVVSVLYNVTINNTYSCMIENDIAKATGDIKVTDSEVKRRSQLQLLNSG
Protocol: as §1

EC50 (read off the curve) [1]: ~0.04 µg/mL | EC50 (read off the curve) [2]: ~0.1 µg/mL | EC50 (read off the curve) [3]: ~0.4 µg/mL
B1: IgG1-B7H4-C1-N52S-FEAR (antibody, V domains shown)
VH: QVQLQQWGAGLLKPSETLSLTCAVYGGSFSGYYWSWIRQPPGKGLEWIGEISHSGSTNYNPSLKSRVTISIDTSKNQFSLKLTSVTAADTAVFYCARGLFNWNFDSWGQGTLVTVSS
VL: DIQMTQSPSSLSASVGDRVTITCRASQGIRNDLGWYQQKPGKAPKRLIYGASSLQSGVPSRFSGSGSGTEFTLTISSLQPEDFATYYCLQHNSYPRTFGQGTTVEIKR
notes: Full-length human IgG1 with L234F, L235E, D265A, K409R (FEAR), kappa light chain; also called IgG1-B7H4-C1-052S-FEAR; IgG1-B7H4-C1-N525-FEAR
